Here are results for six molecules from PMC8560823, “Structural insights into the clustering and activation of Tie2 receptor mediated by Tie2 agonistic antibody” (Nature Communications, 2021).

The target in data set [1] is T1, mouse Tie2 Ig3–Fn3 (Mus musculus, UniProt Q02858).
T1 construct: mouse Tie2, Ig3–Fn3, residues 349–737; also called mTie2 Ig3–Fn3; mTie2
Description: BLI; Octet, 30 °C; humanized IgG1s and mouse Tie2; how the humanized IgG1s were loaded is not told (Supplementary Fig. 5f). Particulars: both partners purified.

Data set [2] deals with T1, mouse Tie2 Ig3–Fn3. Description: BLI; Octet, 30 °C; mouse hTAAB (10 μg/ml) loaded on anti-mouse IgG Fc capture (AMC) biosensors; 1600 nM mouse Tie2 Ig3–Fn3 in kinetics buffer (0.01% BSA, 0.002% Tween-20, 0.005% NaN3 in PBS); 600 s association, 600 s dissociation. The note with it: both partners purified. A general note: In BLI a coated tip is dipped into the sample, and binding shifts an interference pattern.

Data set [3] has as its target T2, human Tie2 extracellular domain (hTie2 ECD) (human, UniProt Q02763).
T2 construct: human Tie2, extracellular domain, residues 23–735 of human Tie2; Host, tags and purification of the ECD are not described; also called Human Tie2 ECD; source: produced in house
Nature of the data set: SPR; Biacore T200; hTie2 ECD immobilised on CM5 chip by amine coupling (10 mM acetate pH 5.5); antibodies flowed at 0-64 nM, 300 s association, 300 s dissociation, 30 µl/min; HBS-EP+ buffer; 1:1-binding model, global fit. The note with it: both partners purified.

Data set [4] deals with the molecule itself. Description: cross-linking; engineered disulfide bonds (D682C/N691C) across the Fn3–Fn3' interface; SDS-PAGE with Coomassie blue under reducing and non-reducing conditions.

T2 sequence (Q02763 23-735): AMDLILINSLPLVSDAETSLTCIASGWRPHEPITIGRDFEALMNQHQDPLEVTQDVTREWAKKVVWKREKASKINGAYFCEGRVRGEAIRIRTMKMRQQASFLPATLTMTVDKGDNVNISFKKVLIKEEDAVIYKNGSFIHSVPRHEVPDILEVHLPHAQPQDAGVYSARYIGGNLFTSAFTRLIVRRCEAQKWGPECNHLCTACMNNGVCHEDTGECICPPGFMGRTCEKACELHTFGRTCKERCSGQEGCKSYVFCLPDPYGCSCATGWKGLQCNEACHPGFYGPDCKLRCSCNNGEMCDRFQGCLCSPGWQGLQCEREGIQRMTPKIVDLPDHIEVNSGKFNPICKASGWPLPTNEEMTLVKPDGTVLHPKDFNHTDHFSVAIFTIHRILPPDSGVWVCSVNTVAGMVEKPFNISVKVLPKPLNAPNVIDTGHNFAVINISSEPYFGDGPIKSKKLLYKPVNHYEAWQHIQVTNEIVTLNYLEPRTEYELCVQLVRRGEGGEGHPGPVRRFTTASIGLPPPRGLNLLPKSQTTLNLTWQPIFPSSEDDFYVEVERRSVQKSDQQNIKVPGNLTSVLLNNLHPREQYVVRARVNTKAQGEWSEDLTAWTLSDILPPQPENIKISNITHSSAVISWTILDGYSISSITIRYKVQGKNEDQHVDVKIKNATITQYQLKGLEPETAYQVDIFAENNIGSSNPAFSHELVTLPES
T1 sequence (Q02858 349-737): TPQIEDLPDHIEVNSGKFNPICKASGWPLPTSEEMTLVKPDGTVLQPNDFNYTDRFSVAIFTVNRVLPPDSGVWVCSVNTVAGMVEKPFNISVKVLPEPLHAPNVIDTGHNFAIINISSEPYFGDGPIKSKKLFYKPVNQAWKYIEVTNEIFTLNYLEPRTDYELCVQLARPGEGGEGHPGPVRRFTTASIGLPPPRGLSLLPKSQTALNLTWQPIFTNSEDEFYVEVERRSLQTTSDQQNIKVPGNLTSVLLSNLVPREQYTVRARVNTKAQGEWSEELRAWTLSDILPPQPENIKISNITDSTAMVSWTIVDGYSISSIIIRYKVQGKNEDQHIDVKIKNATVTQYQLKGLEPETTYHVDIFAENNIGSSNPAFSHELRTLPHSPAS

B1: hzTAAB-H1L1 (antibody, V domains shown)
VH: QVQLVQSGAEVKKPGASVKVSCKASGYSFTSYWMHWVRQAPGQGLEWMGIIHPSDSETRYAQKFQGRVTMTRDTSTSTVYMELSSLRSEDTAVYYCARGLYGNSWGQGTLVTVSS
VL: DIQMTQSPSSLSASVGDRVTITCRASQDIGISLGWYQQKPGKAPKRLIYATSSLQSGVPSRFSGSGSGTEFTLTISSLQPEDFATYYCLQYASSPYTFGQGTKLEIK
Consider B1, for which the binding result with mouse Tie2 Ig3–Fn3 [1] is “no binding (tested: 1600 nM)”.

B2: hzTAAB-H1L2 (antibody, V domains shown)
VH: QVQLVQSGAEVKKPGASVKVSCKASGYSFTSYWMHWVRQAPGQGLEWMGIIHPSDSETRYAQKFQGRVTMTRDTSTSTVYMELSSLRSEDTAVYYCARGLYGNSWGQGTLVTVSS
VL: DIQMTQSPSSLSASVGDRVTITCRASQDIGISLNWLQQKPGKAPKRLIYATSSLDSGVPSRFSGSRSGTEFTLTISSLQPEDFATYYCLQYASSPYTFGQGTKLEIK
As to B2, in the data set with mouse Tie2 Ig3–Fn3 [1], the binding result is “no binding (tested: 1600 nM)”.

B3: hzTAAB-H2L1 (antibody, V domains shown)
VH: QVQLVQSGAEVKKPGASVKVSCKASGYSFTSYWMHWVRQAPGQGLEWMGIIHPSDSETRYAQKFQGRVTMTVDKSTSTVYMELSSLRSEDTAVYYCARGLYGNSWGQGTLVTVSS
VL: DIQMTQSPSSLSASVGDRVTITCRASQDIGISLGWYQQKPGKAPKRLIYATSSLQSGVPSRFSGSGSGTEFTLTISSLQPEDFATYYCLQYASSPYTFGQGTKLEIK
For the molecule B3, the binding result with mouse Tie2 Ig3–Fn3 [1] is listed as “no binding (tested: 1600 nM)”.

B4: hzTAAB-H2L2 (antibody, V domains shown)
VH: QVQLVQSGAEVKKPGASVKVSCKASGYSFTSYWMHWVRQAPGQGLEWMGIIHPSDSETRYAQKFQGRVTMTVDKSTSTVYMELSSLRSEDTAVYYCARGLYGNSWGQGTLVTVSS
VL: DIQMTQSPSSLSASVGDRVTITCRASQDIGISLNWLQQKPGKAPKRLIYATSSLDSGVPSRFSGSRSGTEFTLTISSLQPEDFATYYCLQYASSPYTFGQGTKLEIK
In the case of B4, the binding result with mouse Tie2 Ig3–Fn3 [1] is given as “no binding (tested: 1600 nM)”.

B5: human Tie2-activating antibody (hTAAB), mouse IgG1 (antibody, V domains shown)
VH: QVQLQQPGAELVRPGASVKLSCKASGYSFTSYWMNWVKQRPGQGLEWIGMIHPSDSETRLNQKFMDKATLTVDKSSSTAYMQLSSPTSEDSAVYYCARGLYGNSWGQGTLVTVSA
VL: DIQMTQSPSSLSASLGERVSLTCRASQDIGISLNWLQQEPDGTIKRLIYATSSLDSGVPKRFSGSRSGSDYSLTISSLESEDFVDYYCLQYASSPYTFGGGTKLEIK
notes: heavy-chain variable region of hTAAB (clone 3H7; closest germline mIGHV1-61*01); mouse IgG1 heavy-chain constant region; light-chain variable region of hTAAB (clone 3H7; closest germline mIGKV9-120*01); mouse kappa light-chain constant region; Mouse IgG1 from the hybridoma; also called 3H7; mouse hTAAB; source: B-cell hybridoma clone 3H7, serum-free culture supernatant, purified (Protein G); …
As a reminder, the Kd is the equilibrium constant for the complex coming apart. A lower Kd goes with higher affinity. In general, koff refers to the rate constant with which the complex falls apart. Read a low koff as a long-lived complex. Usually kon stands for a measure of how fast the partners come together. Lower therefore signals slow association. B5: the binding result with mouse Tie2 Ig3–Fn3 [2] is listed as “no binding (tested: 1600 nM)”. For the same molecule, in data set [3], the affinity, expressed as Kd, was 4.2 nM; the koff was determined as 0.0006 s⁻¹; the kon stood at 140000 M⁻¹ s⁻¹.

B6: hTie2 Ig3–Fn3 D682C/N691C (domain or fragment, human, UniProt Q02763 349-738, looked up)
chain: TPKIVDLPDHIEVNSGKFNPICKASGWPLPTNEEMTLVKPDGTVLHPKDFNHTDHFSVAIFTIHRILPPDSGVWVCSVNTVAGMVEKPFNISVKVLPKPLNAPNVIDTGHNFAVINISSEPYFGDGPIKSKKLLYKPVNHYEAWQHIQVTNEIVTLNYLEPRTEYELCVQLVRRGEGGEGHPGPVRRFTTASIGLPPPRGLNLLPKSQTTLNLTWQPIFPSSEDDFYVEVERRSVQKSDQQNIKVPGNLTSVLLNNLHPREQYVVRARVNTKAQGEWSEDLTAWTLSDILPPQPENIKISNITHSSAVISWTILDGYSISSITIRYKVQGKNECQHVDVKIKCATITQYQLKGLEPETAYQVDIFAENNIGSSNPAFSHELVTLPESQAP
modifications: two intermolecular disulfide bonds between the introduced cysteines 682 and 691
notes: human Tie2, Ig3–Fn3, residues 349–738, with D682C and N691C; Made by overlap extension PCR from the pFuse-hTie2 Ig3–Fn3–hIgG1–Fc construct; also called constitutive Tie2 Ig3–Fn3 dimer; Tie2 dimeric mutant; source: Expi293F, secreted as Fc fusion, purified as for hTie2 Ig3–Fn3 (MabSelect SuRe, Fc removed by thrombin); not shown: Fc (human IgG1), C-terminal, cleaved
With B6, the binding result in data set [4] was “binds”.
